Patent US10106589B2, “Compositions and methods for immunomodulation” (FUNDACIO INSTITUT D'INVESTIGACIO BIOMEDICA DE BELLVITGE …, priority 2011, dated 2018)
Entries after “also recorded” stand apart in the source; their conditions may differ.

How the values were obtained:
human Mo-DCs [1] = test: Flow cytometry of cell surface markers on treated, LPS-matured Mo-DCs; conditions: CCP6-based peptides at 100 μM
human Mo-DCs [2] = test: as above; assay type: cell-based; conditions: treated throughout differentiation and maturation, LPS-matured; for CD1a expression / CD80 expression / CD83 expression / CD86 expression: dose-dependent; for expression of surface markers (CD14, HLA-DR, CD40, CD80, CD83, CD86, CD1a): vs untreated mDC
Description: Peripheral blood mononuclear cells (PBMCs) were obtained from buffy coat preparations belonging to healthy donors from the Blood and Tissue Bank (Barcelona, Spain) after Ficoll-Paque™ density centrifugation (GE Healthcare Bio-Sciences AB; Uppsala, Sweden). Monocytes were purified by two different methods: 1) Cells were plated at 1×10^6 cells/ml in 60 mm culture plates (Corning, Spain) in RPMI without serum and allowed to adhere for 2 h at 37° C. in 5% CO2. The non-adherent cells were removed by washing in PBS. […] 2) Cells were purified using colloidal super-paramagnetic microbeads conjugated with monoclonal mouse anti-human CD14 antibodies (MACS, Miltenyi Biotec, Auburn, Calif., or EasySep® Positive Selection Cocktail, StemCell Technologies, Grenoble, France). The purity of CD14^+ cells was tested by CD14 staining and flow cytometry analysis (>90% CD14^+ cells). Monocyte-derived DCs (Mo-DCs) were generated supplementing the monocyte cultures with complete RPMI 1640 medium plus GM-CSF (800 UI/ml) and IL-4 (500 UI/ml) (both from Gentaur, Kampenhout, Belgium) at day 0 and day 3 of culture. For DC maturation, at day 5 iDCs were further stimulated for 48 h with 5 μg/ml LPS (Escherichia coli 055.B5, Sigma L2880, Copenhagen, Denmark).
Cell surface phenotypes were analyzed using the following monoclonal antibodies: FITC-conjugated anti-HLA-DR (Immu-357), FITC-conjugated anti-CD83 (HB15a), FITC-conjugated anti-CD14 (RMO52), PE-conjugated anti-CD40 (MAB89), PE-conjugated anti-CD1a (BL6), PE-conjugated anti-CD80 (MAB104), PE-conjugated anti-CD86 (HA5.2B7) (all from Beckman-Coulter), Alexa Fluor 488-conjugated anti-CCR7 (TG8/CCR7, Biolegend, San Diego, Calif.), and the respective isotype controls from the same commercial sources. After washing with PBS, cells were subsequently stained with 3 μl MoAb/10^5 cells in 100 μl of FACS buffer (PBS containing 1% BSA and 0.1% sodium azide) for 20 min at room temp. Stained cells were analysed using a FACScalibur (Becton Dickinson). Mo-DCs were gated according to forward scatter (FSC) and side scatter (SSC) parameters. The results were analysed using CellQuestPro software (Becton Dickinson).
Both the different C4BP isoforms (α7β1, α7β0 and α6β0), and Factor H were added at 2, 5 and 10 μg/ml throughout Mo-DC differentiation, maturation, or both. Namely, for the differentiation assays the proteins were added at day 0 and replenished at day 3. For the maturation assays the proteins were added at day 5, either alone or combined with LPS. Finally, for the differentiation plus maturation assays the proteins were added at days 0, 3 and 5 (at the last time point, combined with LPS).

human Mo-DCs [3] = test: Scanning electron microscopy of Mo-DC surface morphology; assay type: cell-based; conditions: SEM after 48 h LPS maturation
Description: Monocytes were seeded on glass slides covered with either poly-L-lysine (25 μg/ml) or fibronectin (42 μg/ml), cultured for 5 days in complete RPMI medium supplemented with 800 U/ml GM-CSF, 500 U/ml IL-4, and the C4BP isoforms α7β1, α7β0, or Factor H (10 μg/ml), and further stimulated with LPS for 48 hours in the same medium. The resulting DCs were fixed in 1% paraformaldehyde and 1.25% glutaraldehyde in cacodylate buffer for 2 h. Finally, the cells were post-fixed in 1% OsO4, and dehydrated with graded series of ethanol followed by acetone. After dehydration the cells were dried in a critical-point dryer and coated with gold before observation by scanning electron microscopy (Zeiss DSM940A).

human Mo-DCs [4] = test: Quantitative RT-PCR of CCR7, IDO, BIC-1, SOD2 in Mo-DCs; assay type: cell-based; conditions: RT-qPCR; pretreated, LPS-matured Mo-DCs
Description: Mo-DCs (10^6/condition) were harvested at day 7 and the mRNA was extracted using the RNeasy RNA Isolation kit (Qiagen) and incubated with RNase-free DNase I (Ambion, Austin, Tex.) according to the manufacturer's protocol. A two-step real-time RT-PCR technique was used to determine the relative mRNA levels of human CCR7, BIC-1, IDO and SOD2. Reverse transcription reactions were performed with 500 ng of total RNA using the Omniscript RT kit (Qiagen). Quantification of mRNA levels was performed by real-time polymerase chain reaction (PCR) with the use of the LightCycler technology (Roche Molecular Biochemicals, Indianapolis, Ind.). The following primers were used: CCR7-f (5′-TGGGCATCTGGATACTAGC-3′) (SEQ ID NO:6), CCR7-r (5′-AAGAAAGGGTTGACGCAGC-3′) (SEQ ID NO:7); IDO-f (5′-[…]-3′) (SEQ ID NO:8); IDO-r (5′-[…]-3′) (SEQ ID NO:9); BIC-1-f (5′-[…]-3′) (SEQ ID NO:10), BIC-1-r (5′-[…]-3′) (SEQ ID NO:11); SOD2-f (5′-GACAAACCTCAGCCCTAAC-3′) (SEQ ID NO:12), SOD2-r (5′-[…]-3′) (SEQ ID NO:13), yielding products of 435, 227, 296 bp, and 248 bp, respectively. These gene-specific primer pairs were designed using Oligo 4.0 and Primer 3 software packages (MBI, Cascade, Colo.) and selected to prevent primer-dimer formation.
All samples were normalized with the use of the following primer set for the constitutively expressed human cyclophilin gene: CypA-f (5′-[…]-3′) (SEQ ID NO:14) and CypA-r (5′-CACCACATGCTTGCCATCC-3′) (SEQ ID NO:15) (Pluvinet R. et al., 2004, Blood. 104: 3642-3646). All primers were purchased from Bonsai Technologies (Copenhagen, Denmark).
PCR amplifications were performed in a 20 μl volume containing 2 μl ready-to-use reaction mix, 10×DNA Master SYBR Green I (Roche Molecular Biochemicals); MgCl2 (3 mM for CCR7; 4 mM for BIC-1 and SOD2, and 5 mM for IDO); 0.15 μM of each primer; 5% dimethyl sulfoxide (DMSO); and 75 ng cDNA as template. The amplification program used an initial denaturation at 95° C. for 10 min, followed by 45 cycles: 95° C. for 1 sec; 58° C. (CCR7 and SOD2)/60° C. (BIC-1 and IDO) for 5 sec; 72° C. for 10 sec.

allogeneic CD3+ T cells = test: Mixed leukocyte reaction ([3H]-thymidine incorporation); assay type: cell-based, human; conditions: Mo-DCs pre-incubated and matured with LPS; DC:T 1:40, 1:80, 1:160; 5 days
Description: CD3^+ T cells (10^5/well) and C4BP-treated (α7β1 and α7β0), or Factor H-treated, and LPS-activated Mo-DCs were seeded in a 96-well round-bottom plate at various DC:T cell ratios (1:40, 1:80 and 1:160) and cultured in X-VIVO 15 medium (Biowittaker, Walkersville, Md.) supplemented with 100 μg/ml of streptomycin, 100 IU/ml of penicillin and 2 mM L-glutamine (all from Invitrogen) plus 2% Human AB Serum. Allospecific proliferation was measured after 5 days of incubation. At day 4, the […] [^3H]-thymidine (1 μCi/well, Perkin Elmer, Boston, Mass.) was added, followed by incubation for another 16 h. Labeled cells were then harvested onto glass-fiber filters with a Filtermate Harvester (Packard, Meriden, Conn.), and the T cell proliferation rate was determined by the amount of [^3H]-thymidine incorporation, which was measured in a TopCount NXT counter (Packard). Results are reported as the mean cpm±SD of thymidine incorporation in quadruplicate culture wells.

Molecule | CD83 upregulation on LPS-matured Mo-DCs (human Mo-DCs [1]) | toxicity to the DCs (human Mo-DCs [1]) | CD1a expression (human Mo-DCs [2]) | CD80 expression (human Mo-DCs [2]) | CD83 expression (human Mo-DCs [2]) | CD86 expression (human Mo-DCs [2]) | expression of surface markers (CD14, HLA-DR, CD40, CD80, CD83, CD86, CD1a) (human Mo-DCs [2]) | surface morphology of Mo-DCs (human Mo-DCs [3]) | BIC-1 transcript level (human Mo-DCs [4]) | CCR7 transcript level (human Mo-DCs [4]) | IDO transcript level (human Mo-DCs [4]) | allogeneic T cell proliferation (allogeneic CD3+ T cells)
PS6-03: SEQ ID NO:4 EISFSSH ETSRFSAISQ GDGTWSPRTP SSG, CCP6-derived peptide (EISFSSHETSRFSAISQGDGTWSPRTPSSG; PS6-03) | seemed to prevent CD83 upregulation | – | – | – | – | – | – | – | – | – | – | –
PS6-04: SEQ ID NO:5 ITQHRK SRPANHSV, 14-mer CCP6-derived peptide (ITQHRKSRPANHSV; PS6-04) | comparable effect than its C4BP α6β0 counterpart | – | – | – | – | – | – | – | – | – | – | –
Ac-HRKSRPANHSVYFYGDEISFSSHETSRFSA-NH2 [PS6-02] | seemed to prevent CD83 upregulation | toxic | – | – | – | – | – | – | – | – | – | –
C4BP α7β0: C4BP isoform exclusively composed of 7 α-chains, purified from pooled human plasma (protein, UniProt P04003 49-597, looked up) C4b-binding protein alpha …: NCGPPPTLSFAAPMDITLTETRFKTGTTLKYTCLPGYVRSHSTQTLTCNSDGEWVYNTFCIYKRCRHPGELRNGQVEIKTDLSFGSQIEFSCSEGFFLIGSTTSRCEVQDRGVGWSHPLPQCEIVKCKPPPDIRNGRHSGEENFYAYGFSVTYSCDPRFSLLGHASISCTVENETIGVWRPSPPTCEKITCRKPDVSHGEMVSGFGPIYNYKDTIVFKCQKGFVLRGSSVIHCDADSKWNPSPPACEPNSCINLPDIPHASWETYPRPTKEDVYVVGTVLRYRCHPGYKPTTDEPTTVICQKNLRWTPYQGCEALCCPEPKLNNGEITQHRKSRPANHCVYFYGDEISFSCHETSRFSAICQGDGTWSPRTPSCGDICNFPPKIAHGHYKQSSSYSFFKEEIIYECDKGYILVGQAKLSCSYSHWSAPAPQCKALCRKPELVNGRLSVDKDQYVEPENVTIQCDSGYGVVGPQSITCSGNRTWYPEVPKCEWETPEGCEQVLTGKRLMQCLPNPEDVKMALEVYKLSLEIEQLELQRDSARQSTLDKEL | – | – | significantly down-regulated | significantly down-regulated | significantly down-regulated | significantly down-regulated | inhibit up-regulation | absence of long dendritic projections; also recorded: reversed the “porcupine like” DC morphology | significantly down-regulated | significantly down-regulated | significantly down-regulated | significantly less T cell proliferation
C4BP α6β0: polymeric recombinant full-length C4BP of 6 α-chains, expressed in eukaryotic cells (protein, UniProt P04003 49-597, looked up) C4b-binding protein alpha …: NCGPPPTLSFAAPMDITLTETRFKTGTTLKYTCLPGYVRSHSTQTLTCNSDGEWVYNTFCIYKRCRHPGELRNGQVEIKTDLSFGSQIEFSCSEGFFLIGSTTSRCEVQDRGVGWSHPLPQCEIVKCKPPPDIRNGRHSGEENFYAYGFSVTYSCDPRFSLLGHASISCTVENETIGVWRPSPPTCEKITCRKPDVSHGEMVSGFGPIYNYKDTIVFKCQKGFVLRGSSVIHCDADSKWNPSPPACEPNSCINLPDIPHASWETYPRPTKEDVYVVGTVLRYRCHPGYKPTTDEPTTVICQKNLRWTPYQGCEALCCPEPKLNNGEITQHRKSRPANHCVYFYGDEISFSCHETSRFSAICQGDGTWSPRTPSCGDICNFPPKIAHGHYKQSSSYSFFKEEIIYECDKGYILVGQAKLSCSYSHWSAPAPQCKALCRKPELVNGRLSVDKDQYVEPENVTIQCDSGYGVVGPQSITCSGNRTWYPEVPKCEWETPEGCEQVLTGKRLMQCLPNPEDVKMALEVYKLSLEIEQLELQRDSARQSTLDKEL | – | – | significantly down-regulated | significantly down-regulated | significantly down-regulated | significantly down-regulated | inhibit up-regulation | reversed the “porcupine like” DC morphology | significantly down-regulated | significantly down-regulated | significantly down-regulated | –
